The source of these data is patent publication US5821048, “Methods, kits, and compositions for diagnosing papillomavirus infection” (President and Fellows of Harvard College, dated 1998).

The target in assay [1] is T1, BPV-1 E2 protein bearing a deletion of the amino terminal 52 amino acids (bovine papillomavirus-1, 35S-methionine-labelled).
T1 chain: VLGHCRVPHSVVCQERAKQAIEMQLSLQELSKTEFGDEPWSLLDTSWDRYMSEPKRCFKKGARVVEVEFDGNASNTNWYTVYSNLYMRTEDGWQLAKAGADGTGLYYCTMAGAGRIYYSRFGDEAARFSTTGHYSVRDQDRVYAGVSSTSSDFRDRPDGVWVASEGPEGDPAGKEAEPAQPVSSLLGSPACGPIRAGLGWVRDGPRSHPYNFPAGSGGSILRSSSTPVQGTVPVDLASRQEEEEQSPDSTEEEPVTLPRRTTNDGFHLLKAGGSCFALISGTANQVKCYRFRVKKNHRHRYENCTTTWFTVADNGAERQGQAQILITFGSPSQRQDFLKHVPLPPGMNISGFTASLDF
Put plainly: GST pull-down of in vitro translated 35S-E2 forms.

In assay [2] the target is T2, BPV-1 E2 (aa161-410) (bovine papillomavirus-1, 35S-methionine-labelled).
T2 chain: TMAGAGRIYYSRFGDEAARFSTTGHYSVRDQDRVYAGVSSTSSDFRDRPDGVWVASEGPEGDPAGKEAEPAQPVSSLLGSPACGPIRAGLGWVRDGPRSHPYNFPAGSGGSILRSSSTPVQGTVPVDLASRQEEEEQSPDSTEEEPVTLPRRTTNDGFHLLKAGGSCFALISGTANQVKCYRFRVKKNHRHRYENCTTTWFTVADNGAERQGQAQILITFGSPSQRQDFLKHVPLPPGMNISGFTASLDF
Put plainly: GST pull-down of in vitro translated 35S-E2 forms.

Assay [3] addresses T3, full length BPV-1 E2 protein, in vitro translated (bovine papillomavirus-1, 35S-methionine-labelled).
T3 chain: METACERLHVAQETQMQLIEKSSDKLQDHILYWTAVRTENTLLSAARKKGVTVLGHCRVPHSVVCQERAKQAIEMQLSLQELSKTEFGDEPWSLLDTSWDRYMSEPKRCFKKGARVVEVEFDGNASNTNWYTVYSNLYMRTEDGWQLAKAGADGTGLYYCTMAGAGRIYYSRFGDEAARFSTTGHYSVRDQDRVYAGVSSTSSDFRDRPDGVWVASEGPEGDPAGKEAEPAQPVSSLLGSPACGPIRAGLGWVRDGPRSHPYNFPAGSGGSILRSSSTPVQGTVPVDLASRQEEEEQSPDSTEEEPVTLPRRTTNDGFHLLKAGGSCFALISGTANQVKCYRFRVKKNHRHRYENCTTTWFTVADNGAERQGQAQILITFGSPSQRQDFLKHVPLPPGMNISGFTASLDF
The experiment in a line: GST pull-down of in vitro translated 35S-E2.

B1: BPV-1 E1 (amino acids 1-222)-GST fusion protein (other)
chain: MANDKGSNWDSGLGCSYLLTEAECESDKENEEPGAGVELSVESDRYDSQDEDFVDNASVFQGNHLEVFQALEKKAGEEQILNLKRKVLGSSQNSSGSEASETPVKRRKSGAKRRLFAENEANRVLTPLQVQGEGEGRQELNEEQAISHLHLQLVKSKNATVFKLGLFKSLFLCSFHDITRLFKNDKTTNQQWVLAVFGLAEVFFEASFELLKKQCSFLQMQK
Consider B1, for which the binding result in assay [1] and in assay [2] was “no binding” throughout.

B2: GST fusion protein containing amino acids 200-424 of SEQ ID NO:1 (BPV-1 E1) (other)
chain: AEVFFEASFELLKKQCSFLQMQKRSHEGGTCAVYLICFNTAKSRETVRNLMANTLNVREECLMLQPAKIRGLSAALFWFKSSLSPATLKHGALPEWIRAQTTLNESLQTEKFDFGTMVQWAYDHKYAEESKIAYEYALAAGSDSNARAFLATNSQAKHVKDCATMVRHYLRAETQALSMPAYIKARCKLATGEGSWKSILTFFNYQNIELITFINALKLWLKGIP
Turning to B2, the binding result in assay [3] was “no binding”.

B3: GST fusion protein containing BPV-1 E1 amino acids 1-128 (other)
chain: MANDKGSNWDSGLGCSYLLTEAECESDKENEEPGAGVELSVESDRYDSQDEDFVDNASVFQGNHLEVFQALEKKAGEEQILNLKRKVLGSSQNSSGSEASETPVKRRKSGAKRRLFAENEANRVLTPL
For the molecule B3, the binding result in assay [3] is reported as “no binding”.
